Laboratory results from patent US20260356970 (published 2026).

B1: EMR2-2-scFv (antibody, V domains shown)
VH: QVQPVESGGGLVQPGGSLRLSCAASGFTFSSYEMNWVRQAPGKGLEWVSAISGGGGSTYYADSVKGRFTISRDNSKNTLYLQMNSLRAEDTAVYYCAKSGRGWAAAGRWGQGTLVTVSS
VL: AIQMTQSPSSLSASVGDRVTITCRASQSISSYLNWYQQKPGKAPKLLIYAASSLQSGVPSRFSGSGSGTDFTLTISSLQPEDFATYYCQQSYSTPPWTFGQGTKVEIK
B2: EMR2-3-VH (designed binder)
chain: QVQLVQSGGGLVQPGGSLRLSCAASDFSFDSYEMSWVRQAPGKGLEWVSSISASGGRTFYADSVKGRFTISRDNSKNTLYLQMNTLRAEDTALYYCARHPGIMGQGTLVTVSS
B3: EMR2-1-scFv (antibody, V domains shown)
VH: QVQLVQSGAEVKKPGASVKVSCKASGYTFTSYGISWVRQAPGQGLEWMGWISAYNGNTNYAQKLQGRVTMTTDTSTSTAYMELRSLRSDDTAVYYCARGYAFDIWGQGTMVTVSS
VL: SYELTQPLSVSVALGQTARITCGGNNIGSKNVHWYQQKPGQAPVLVIYRDSNRPSGIPERFSGSNSGNTATLTINRAQAGDEADYYCQVWDSSTVVFGGGTELTVL

Molecular target: T1, EMR2 (human, UniProt Q9UHX3)
T1 chain: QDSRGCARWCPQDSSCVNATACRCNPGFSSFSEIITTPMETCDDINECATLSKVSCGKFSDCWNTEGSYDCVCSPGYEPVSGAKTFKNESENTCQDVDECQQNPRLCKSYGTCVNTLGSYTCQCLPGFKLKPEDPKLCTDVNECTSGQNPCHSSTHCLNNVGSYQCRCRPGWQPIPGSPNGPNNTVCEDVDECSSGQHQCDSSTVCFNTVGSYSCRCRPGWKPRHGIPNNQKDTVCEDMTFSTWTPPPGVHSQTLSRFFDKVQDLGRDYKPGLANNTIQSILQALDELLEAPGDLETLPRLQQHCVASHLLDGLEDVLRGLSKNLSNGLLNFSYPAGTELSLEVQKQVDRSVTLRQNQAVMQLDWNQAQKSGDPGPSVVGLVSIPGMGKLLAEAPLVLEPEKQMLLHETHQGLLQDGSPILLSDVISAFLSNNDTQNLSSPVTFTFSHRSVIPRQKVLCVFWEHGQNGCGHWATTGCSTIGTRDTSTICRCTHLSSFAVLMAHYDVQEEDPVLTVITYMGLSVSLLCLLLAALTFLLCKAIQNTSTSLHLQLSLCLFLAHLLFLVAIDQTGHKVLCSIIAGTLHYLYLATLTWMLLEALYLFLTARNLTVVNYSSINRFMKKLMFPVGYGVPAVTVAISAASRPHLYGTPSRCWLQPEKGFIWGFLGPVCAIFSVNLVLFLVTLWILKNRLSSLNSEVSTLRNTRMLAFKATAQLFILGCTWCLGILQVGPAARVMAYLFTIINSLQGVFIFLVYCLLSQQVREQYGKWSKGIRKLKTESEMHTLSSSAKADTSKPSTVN
Assay: ELISA

EC50, < 1 nM:
B1, B2, B3
